Results as given in article PMC9798557 (Journal of Hematology & Oncology, 2022).

Biological target: T1, human CD38 (Homo sapiens, UniProt P28907)
T1 construct: CD38, human; Used for both the SPR and the cryo-EM complex; probably a soluble extracellular form
Assay: SPR; Biacore 8 K
Details: both partners purified

Kd: 3.84 nM
B1: daratumumab (antibody, V domains shown)
VH: EVQLLESGGGLVQPGGSLRLSCAVSGFTFNSFAMSWVRQAPGKGLEWVSAISGSGGGTYYADSVKGRFTISRDNSKNTLYLQMNSLRAEDTAVYFCAKDKILWFGEPVFDYWGQGTLVTVSS
VL: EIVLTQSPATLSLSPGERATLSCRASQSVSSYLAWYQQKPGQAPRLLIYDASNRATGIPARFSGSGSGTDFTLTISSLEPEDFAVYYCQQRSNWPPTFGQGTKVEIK
notes: heavy chain of daratumumab; light chain of daratumumab; Marketed anti-CD38 mAb used as a comparator
